Assay results from PMC8247599.

Assays:
[1] = target: Khc-FL (Drosophila melanogaster, UniProt P17210 1-975); test: EMSA
[2] = target: Khc 855-941 (Drosophila melanogaster, UniProt P17210 855-941); test: EMSA
Sequence of Khc 855-941 (P17210 855-941): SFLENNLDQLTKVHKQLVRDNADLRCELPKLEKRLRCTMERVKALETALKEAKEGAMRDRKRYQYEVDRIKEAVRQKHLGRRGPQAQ

Sequence of Khc-FL (P17210 whole entry): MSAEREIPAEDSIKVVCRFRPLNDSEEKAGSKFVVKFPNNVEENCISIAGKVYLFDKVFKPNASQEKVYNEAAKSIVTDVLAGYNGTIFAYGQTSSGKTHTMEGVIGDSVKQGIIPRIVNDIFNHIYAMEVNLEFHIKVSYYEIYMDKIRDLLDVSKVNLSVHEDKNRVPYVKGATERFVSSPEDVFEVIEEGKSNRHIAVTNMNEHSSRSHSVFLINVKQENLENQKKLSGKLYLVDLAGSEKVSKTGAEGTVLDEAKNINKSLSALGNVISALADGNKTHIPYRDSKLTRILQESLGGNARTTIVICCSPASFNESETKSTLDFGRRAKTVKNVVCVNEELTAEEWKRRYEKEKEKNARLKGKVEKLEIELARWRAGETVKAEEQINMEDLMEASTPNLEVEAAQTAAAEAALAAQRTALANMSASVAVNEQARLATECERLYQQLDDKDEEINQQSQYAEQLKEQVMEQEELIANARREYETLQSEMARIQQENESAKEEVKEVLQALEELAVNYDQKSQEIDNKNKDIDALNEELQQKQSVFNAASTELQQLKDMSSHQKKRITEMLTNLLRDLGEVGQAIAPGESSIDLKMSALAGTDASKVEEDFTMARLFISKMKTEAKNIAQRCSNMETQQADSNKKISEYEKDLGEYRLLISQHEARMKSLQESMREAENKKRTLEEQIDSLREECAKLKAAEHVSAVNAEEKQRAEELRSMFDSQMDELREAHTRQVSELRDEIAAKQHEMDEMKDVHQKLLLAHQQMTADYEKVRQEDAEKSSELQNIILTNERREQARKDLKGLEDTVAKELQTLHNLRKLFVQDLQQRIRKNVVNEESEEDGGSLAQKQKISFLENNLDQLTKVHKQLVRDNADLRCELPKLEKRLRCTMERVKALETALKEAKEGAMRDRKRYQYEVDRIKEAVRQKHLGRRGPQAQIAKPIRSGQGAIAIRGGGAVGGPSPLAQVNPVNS

UUUUUUUUUUUUUUUUUUUUUUUUU (ssRNA) [oligo-(U25) RNA]
binding result [1]: binds | binding result [2]: binds
